Results: patent US20230192890A1

What was measured:
[1] = molecular target: T1, Ala mutant SEQ ID NO: 36 (human); experiment: ELISA, peptide on plate (10 ug/mL)
T1 sequence (peptide): EENMDDQWMADEMEIGY

[2] = molecular target: T2, Ala mutant SEQ ID NO: 31 (human); experiment: ELISA, peptide on plate (10 ug/mL)
T2 sequence (peptide): EENMADQWMQDEMEIGY

[3] = molecular target: T3, Ala mutant SEQ ID NO: 30 (human); experiment: ELISA, peptide on plate (10 ug/mL)
T3 sequence (peptide): EENADDQWMQDEMEIGY

[4] = molecular target: T4, TA0096 (peptide antigen corresponding to positions 340 to 356 of PAD4) (human); experiment: ELISA, peptide on plate (10 ug/mL)
T4 sequence (peptide): EENMDDQWMQDEMEIGY

[5] = molecular target: T5, Ala mutant SEQ ID NO: 37 (human); experiment: ELISA, peptide on plate (10 ug/mL)
T5 sequence (peptide): EENMDDQWMQAEMEIGY

[6] = molecular target: T6, Ala mutant SEQ ID NO: 28 (human); experiment: ELISA, peptide on plate (10 ug/mL)
T6 sequence (peptide): EANMDDQWMQDEMEIGY

[7] = molecular target: T7, Ala mutant having 3-amino acid substitution, SEQ ID NO: 48 (human); experiment: ELISA, peptide on plate (10 ug/mL)
T7 sequence (peptide): EENMDDQWMQDEAAAGY

[8] = molecular target: T8, Ala mutant SEQ ID NO: 38 (human); experiment: ELISA, peptide on plate (10 ug/mL)
T8 sequence (peptide): EENMDDQWMQDAMEIGY

[9] = molecular target: T9, Ala mutant SEQ ID NO: 43 (human); experiment: ELISA, peptide on plate (10 ug/mL)
T9 sequence (peptide): EENMDDQWMQDEMEIGA

[10] = molecular target: T10, Ala mutant SEQ ID NO: 39 (human); experiment: ELISA, peptide on plate (10 ug/mL)
T10 sequence (peptide): EENMDDQWMQDEAEIGY

[11] = molecular target: T11, Ala mutant SEQ ID NO: 33 (human); experiment: ELISA, peptide on plate (10 ug/mL)
T11 sequence (peptide): EENMDDAWMQDEMEIGY

[12] = molecular target: T12, Ala mutant SEQ ID NO: 29 (human); experiment: ELISA, peptide on plate (10 ug/mL)
T12 sequence (peptide): EEAMDDQWMQDEMEIGY

[13] = molecular target: T13, Ala mutant SEQ ID NO: 27 (human); experiment: ELISA, peptide on plate (10 ug/mL)
T13 sequence (peptide): AENMDDQWMQDEMEIGY

[14] = molecular target: T14, Ala mutant having 3-amino acid substitution, SEQ ID NO: 49 (human); experiment: ELISA, peptide on plate (10 ug/mL)
T14 sequence (peptide): EENMDDQWMQDEMEIAA

[15] = molecular target: T15, Ala mutant SEQ ID NO: 41 (human); experiment: ELISA, peptide on plate (10 ug/mL)
T15 sequence (peptide): EENMDDQWMQDEMEAGY

[16] = molecular target: T16, Ala mutant having 3-amino acid substitution, SEQ ID NO: 44 (human); experiment: ELISA, peptide on plate (10 ug/mL)
T16 sequence (peptide): AAAMDDQWMQDEMEIGY

[17] = molecular target: T17, Ala mutant having 3-amino acid substitution, SEQ ID NO: 46 (human); experiment: ELISA, peptide on plate (10 ug/mL)
T17 sequence (peptide): EENMDDAAAQDEMEIGY

[18] = molecular target: T18, Ala mutant SEQ ID NO: 42 (human); experiment: ELISA, peptide on plate (10 ug/mL)
T18 sequence (peptide): EENMDDQWMQDEMEIAY

[19] = molecular target: T19, Ala mutant SEQ ID NO: 40 (human); experiment: ELISA, peptide on plate (10 ug/mL)
T19 sequence (peptide): EENMDDQWMQDEMAIGY

[20] = molecular target: T20, Ala mutant having 3-amino acid substitution, SEQ ID NO: 47 (human); experiment: ELISA, peptide on plate (10 ug/mL)
T20 sequence (peptide): EENMDDQWMAAAMEIGY

[21] = molecular target: full-length recombinant mouse PAD4 (mouse) (UniProt Q9Z183); experiment: ELISA, mouse PAD4 on plate, antibody 0.0002441 ug/mL
Sequence of full-length recombinant mouse PAD4 (mouse) (Q9Z183 whole entry): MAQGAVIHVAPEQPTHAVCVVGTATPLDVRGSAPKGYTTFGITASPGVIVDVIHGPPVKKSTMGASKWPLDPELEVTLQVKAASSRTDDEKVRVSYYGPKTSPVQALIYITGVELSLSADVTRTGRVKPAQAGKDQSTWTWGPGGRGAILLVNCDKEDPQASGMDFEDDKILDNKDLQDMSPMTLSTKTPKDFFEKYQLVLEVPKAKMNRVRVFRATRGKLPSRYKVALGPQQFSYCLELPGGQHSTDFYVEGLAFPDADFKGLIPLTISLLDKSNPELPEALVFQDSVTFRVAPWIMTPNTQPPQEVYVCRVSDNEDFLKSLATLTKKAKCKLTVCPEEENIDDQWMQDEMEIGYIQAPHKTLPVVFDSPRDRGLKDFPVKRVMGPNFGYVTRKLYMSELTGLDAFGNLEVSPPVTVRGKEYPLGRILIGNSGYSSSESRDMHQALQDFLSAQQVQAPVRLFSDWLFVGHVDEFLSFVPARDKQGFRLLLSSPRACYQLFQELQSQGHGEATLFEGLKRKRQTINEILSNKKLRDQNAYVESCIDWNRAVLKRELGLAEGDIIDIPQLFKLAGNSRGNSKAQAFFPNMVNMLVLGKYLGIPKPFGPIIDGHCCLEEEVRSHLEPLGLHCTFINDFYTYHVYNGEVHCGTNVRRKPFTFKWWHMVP

[22] = molecular target: full-length recombinant mouse PAD4 (mouse) (UniProt Q9Z183); experiment: ELISA, mouse PAD4 on plate, antibody 0.0625 ug/mL
[23] = molecular target: full-length recombinant mouse PAD4 (mouse) (UniProt Q9Z183); experiment: ELISA, mouse PAD4 on plate, antibody 0.015625 ug/mL
[24] = molecular target: full-length recombinant mouse PAD4 (mouse) (UniProt Q9Z183); experiment: ELISA, mouse PAD4 on plate, antibody 0.25 ug/mL
[25] = molecular target: full-length recombinant mouse PAD4 (mouse) (UniProt Q9Z183); experiment: ELISA, mouse PAD4 on plate, antibody 0.0009766 ug/mL
[26] = molecular target: full-length recombinant mouse PAD4 (mouse) (UniProt Q9Z183); experiment: ELISA, mouse PAD4 on plate, antibody 6.104E-05 ug/mL
[27] = molecular target: full-length recombinant mouse PAD4 (mouse) (UniProt Q9Z183); experiment: ELISA, mouse PAD4 on plate, antibody 1 ug/mL
[28] = molecular target: full-length recombinant mouse PAD4 (mouse) (UniProt Q9Z183); experiment: ELISA, mouse PAD4 on plate, antibody 0.0039063 ug/mL

B1: G9 (antibody, IgG1, V domains shown)
VH: AVTLDESGGGLQTPGGALSLVCKASGFTFSTYAMGWMRQAPGKGLEYVAAIRNDGSWTGYGAAVKGRATILRDNGQSTVRLQLSNLRAEDTGTYYCAKYTGSSGGSIGAWGHGTEVIVS
VL: AVTQPASVSANLGGTVEITCSGGGRYYYGWYQQKSPGSAPVTVIYANDKRPSDIPSRFSGSKSGSTGTLTITGVQAEDEAVYFCGSAETSSYVFGAGTTLTVL
B1 was tested, and the absorbance 490 nm/630 nm [1] was 1.87 OD, the absorbance 490 nm/630 nm [2] was 1.48 OD and the absorbance 490 nm/630 nm [3] was 2.03 OD. The absorbance 490 nm/630 nm [4] was 1.85 OD, the absorbance 490 nm/630 nm [5] was 1.88 OD and the absorbance 490 nm/630 nm [6] was 1.96 OD. It also gave an absorbance 490 nm/630 nm [7] of 1.89 OD, an absorbance 490 nm/630 nm [8] of 1.96 OD and an absorbance 490 nm/630 nm [9] of 1.88 OD. For the same binder, the absorbance 490 nm/630 nm [10] was 1.87 OD, the absorbance 490 nm/630 nm [11] was 1.98 OD and the absorbance 490 nm/630 nm [12] was 1.94 OD. It also gave an absorbance 490 nm/630 nm [13] of 1.93 OD, an absorbance 490 nm/630 nm [14] of 1.92 OD and an absorbance 490 nm/630 nm [15] of 1.89 OD. For the same binder, the absorbance 490 nm/630 nm [16] was 1.92 OD, the absorbance 490 nm/630 nm [17] was 0.131 OD and the absorbance 490 nm/630 nm [18] was 1.85 OD. It also gave an absorbance 490 nm/630 nm [19] of 1.88 OD, an absorbance 490 nm/630 nm [20] of 1.85 OD and an absorbance 490 nm/630 nm [21] of 0.181 OD. It also gave an absorbance 490 nm/630 nm [22] of 2.24 OD, an absorbance 490 nm/630 nm [23] of 2.21 OD and an absorbance 490 nm/630 nm [24] of 2.25 OD. The absorbance 490 nm/630 nm [25] was 0.542 OD, the absorbance 490 nm/630 nm [26] was 0.079 OD and the absorbance 490 nm/630 nm [27] was 2.3 OD. For the same binder, the absorbance 490 nm/630 nm [28] was 1.39 OD.
